Measured values published in article PMC11040147.
Like-named read-outs stand apart in the source and are kept apart here.

Key:
Assay in all cases: EMSA
SF3B4 [1] = molecular target: T1, SF3B4 (human? (HeLa cDNA), UniProt Q15427 1-424)
SF3B4 [2] = molecular target: T1, SF3B4; remark: listed apart in the source
SF3B4 [3] = molecular target: T1, SF3B4; remark: listed apart in the source

T1 sequence (Q15427 whole entry): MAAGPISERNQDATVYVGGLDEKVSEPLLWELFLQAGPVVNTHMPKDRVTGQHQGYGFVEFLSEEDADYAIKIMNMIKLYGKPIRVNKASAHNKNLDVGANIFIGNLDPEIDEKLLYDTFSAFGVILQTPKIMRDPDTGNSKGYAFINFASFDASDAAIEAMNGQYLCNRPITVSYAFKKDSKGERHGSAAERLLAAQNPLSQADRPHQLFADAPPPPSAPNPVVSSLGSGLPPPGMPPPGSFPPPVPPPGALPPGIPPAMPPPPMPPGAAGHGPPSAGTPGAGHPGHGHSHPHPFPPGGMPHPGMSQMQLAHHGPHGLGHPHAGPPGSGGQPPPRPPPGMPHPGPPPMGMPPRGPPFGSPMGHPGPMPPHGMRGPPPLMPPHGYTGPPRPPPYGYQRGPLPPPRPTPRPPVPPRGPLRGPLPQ

GGGAGGUGGGAGCCGAGGGUGGG (structured_RNA) [G4-INPPL1]
binding result (SF3B4 [1]): binds

GGTTAGGGTTAGGGTTAGGGTTAGGGTTAG (structured_DNA) [hTelo]
binding result (SF3B4 [2]): binds

AGAGUGAAGUCUGAAGCGCUGAG (ssRNA) [PPP6R2-mut]
binding result (SF3B4 [3]): no binding
